These results are taken from US20180155451A1 (published 2018).

Experiment [1] addresses T1, FcγRIa extracellular domain with C-terminal His tag (human, UniProt P12314 16-292).
T1 construct: extracellular domain; Soluble receptor expressed in FreeStyle293 cells and used as analyte in Biacore; also called FcgRI; 1a; not shown: His tag at the C terminus
In words: SPR Biacore, relative binding amount.

Experiment [2] has as its target T2, FcγRIIb extracellular domain with C-terminal His tag (human, UniProt P31994 43-217).
T2 construct: extracellular domain; Soluble receptor expressed in FreeStyle293 cells and used as analyte in Biacore; also called FcgRIIb; 2b; not shown: His tag at the C terminus
T2 sequence (looked up): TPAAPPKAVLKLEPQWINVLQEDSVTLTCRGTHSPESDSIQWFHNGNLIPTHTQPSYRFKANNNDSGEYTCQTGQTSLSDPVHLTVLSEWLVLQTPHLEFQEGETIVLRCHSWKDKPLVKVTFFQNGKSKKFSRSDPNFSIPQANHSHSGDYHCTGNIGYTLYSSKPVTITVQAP
In words: SPR Biacore, relative binding amount.

The target in experiment [3] is T3, FcγRIIa R (FcγRIIa, allotype R: Arg at position 131) extracellular domain with C-terminal His tag (human, UniProt P12318 34-217).
T3 construct: extracellular domain; also called FcgRIIa R; 2aR; not shown: His tag at the C terminus
T3 sequence (looked up): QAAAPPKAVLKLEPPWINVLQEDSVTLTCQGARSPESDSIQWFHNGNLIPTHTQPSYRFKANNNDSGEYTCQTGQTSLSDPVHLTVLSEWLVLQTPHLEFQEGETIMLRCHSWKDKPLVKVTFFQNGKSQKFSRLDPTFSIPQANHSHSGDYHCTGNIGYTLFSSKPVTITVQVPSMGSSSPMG
In words: ratio He/Con_2aR : He/Con_2b (FcgRIIa R over FcgRIIb), SPR Biacore. The protocol:
The heterodimerized antibodies He Abs in which one of the H chains was introduced with an alteration were assayed for their binding activities to each activating FcγR and inhibitory FcγR according to the method described in Example 4. […] The activating FcγRs in FIGS. 26, 27, 28, and 29 are FcγRIa, FcγRIIa (R), FcγRIIa (H), and FcγRIIIa, respectively.
Analysis of interaction between objective antibody and the FcγR was carried out using Biacore T100 (GE Healthcare). HBS-EP+ (GE Healthcare) was used as the running buffer, and the measurement temperature was set to 25° C. Chips produced by immobilizing the antigen peptide by the amine coupling method to a Series S Sencor Chip CM5 (GE Healthcare), or alternatively, chips produced by allowing preliminarily biotinylated antigen peptides to interact with and immobilize onto a Series S Sensor Chip SA (certified) (GE Healthcare) were used. Antibodies of interest were captured onto an antigen peptide-immobilized chip, and allowed to interact to each FcγR diluted with running buffer. To regenerate and repeatedly use the chip, the antibodies captured on the chip were washed off by reacting 10 mM glycine-HCl, pH 1.5.

Experiment [4] deals with T4, FcγRIIb extracellular domain with C-terminal His tag (human, UniProt P31994 43-217).
T4 construct: extracellular domain; also called FcgRIIb; 2b; not shown: His tag at the C terminus
T4 sequence (looked up): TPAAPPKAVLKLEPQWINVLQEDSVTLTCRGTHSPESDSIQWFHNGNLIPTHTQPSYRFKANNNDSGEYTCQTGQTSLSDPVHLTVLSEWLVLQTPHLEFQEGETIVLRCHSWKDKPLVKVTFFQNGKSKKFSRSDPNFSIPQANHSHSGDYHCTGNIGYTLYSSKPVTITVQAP
In words: SPR Biacore, antibody captured, FcgR analyte; vs HeCon Ab GpH7-A5/GpH7-B3/GpL16-k0 = 100.

The target in experiment [5] is T3, FcγRIIa R (FcγRIIa, allotype R: Arg at …). The description is as above.

T1 sequence (P12314 16-292): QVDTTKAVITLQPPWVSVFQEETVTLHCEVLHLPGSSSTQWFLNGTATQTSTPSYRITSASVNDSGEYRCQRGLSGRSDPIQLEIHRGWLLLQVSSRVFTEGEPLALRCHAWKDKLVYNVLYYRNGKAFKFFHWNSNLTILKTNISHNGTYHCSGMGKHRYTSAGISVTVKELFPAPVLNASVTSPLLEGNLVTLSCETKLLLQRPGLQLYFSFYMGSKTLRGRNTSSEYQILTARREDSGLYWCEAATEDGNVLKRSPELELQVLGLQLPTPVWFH

B1: heterodimerized antibody GpH7-A5/GpH7-B3 variant I336_01G/GpL16-k0 (antibody, human IgG1, kappa)
heavy 1: not shown
heavy 2: not shown
light: DIVMTQSPLSLPVTPGEPASISCQASESLVHSNRNTYLHWYLQKPGQSPQLLIYKVSNRFSGVPDRFSGSGSGTDFTLKISRVEAEDVGVYYCSQNTHVPPTFGQGTKVEIERTVAAPSVFIFPPSDEQLKSGTASVVCLLNNFYPREAKVQWKVDNALQSGNSQESVTEQDSKDSTYSLSSTLTLSKADYEKHKVYACEVTHQGLSSPVTKSFNRGEC
notes: Substitution in only one H chain (GpH7-B3 side); also called He Ab
With B1, the He/Con_1a in experiment [1] was 109 % of GpH7-A5/GpH7-B3/GpL16-k0 (=100). Moreover, the He/Con_2b in experiment [2] is 90.1 % of GpH7-A5/GpH7-B3/GpL16-k0 (=100).

B2: GpH7-A5/GpH7-B3 variant G236_02A/GpL16-k0 (antibody, human IgG1, kappa)
heavy 1: not shown
heavy 2: not shown
light: DIVMTQSPLSLPVTPGEPASISCQASESLVHSNRNTYLHWYLQKPGQSPQLLIYKVSNRFSGVPDRFSGSGSGTDFTLKISRVEAEDVGVYYCSQNTHVPPTFGQGTKVEIERTVAAPSVFIFPPSDEQLKSGTASVVCLLNNFYPREAKVQWKVDNALQSGNSQESVTEQDSKDSTYSLSSTLTLSKADYEKHKVYACEVTHQGLSSPVTKSFNRGEC
notes: He Ab: alteration in the GpH7-B3 H chain only; also called He Ab
Consider B2, for which the “He_2aR/2b (IIaR/IIb)” value in experiment [3] is 1.51. The He/Con_2b in experiment [4] is 96.5 control = 100. Further, the He/Con_2aR in experiment [5] was found to be 146 control = 100.

B3: heterodimerized antibody GpH7-A5/GpH7-B3 variant T335_06M/GpL16-k0 (antibody, human IgG1, kappa)
heavy 1: not shown
heavy 2: not shown
light: DIVMTQSPLSLPVTPGEPASISCQASESLVHSNRNTYLHWYLQKPGQSPQLLIYKVSNRFSGVPDRFSGSGSGTDFTLKISRVEAEDVGVYYCSQNTHVPPTFGQGTKVEIERTVAAPSVFIFPPSDEQLKSGTASVVCLLNNFYPREAKVQWKVDNALQSGNSQESVTEQDSKDSTYSLSSTLTLSKADYEKHKVYACEVTHQGLSSPVTKSFNRGEC
notes: as for B1
Consider B3, for which the He/Con_1a in experiment [1] is 107 % of GpH7-A5/GpH7-B3/GpL16-k0 (=100). Also, the He/Con_2b in experiment [2] is 99.4 % of GpH7-A5/GpH7-B3/GpL16-k0 (=100).

B4: GpH7-A5/GpH7-B3 variant L235_12R/GpL16-k0 (antibody, human IgG1, kappa)
heavy 1: not shown
heavy 2: not shown
light: DIVMTQSPLSLPVTPGEPASISCQASESLVHSNRNTYLHWYLQKPGQSPQLLIYKVSNRFSGVPDRFSGSGSGTDFTLKISRVEAEDVGVYYCSQNTHVPPTFGQGTKVEIERTVAAPSVFIFPPSDEQLKSGTASVVCLLNNFYPREAKVQWKVDNALQSGNSQESVTEQDSKDSTYSLSSTLTLSKADYEKHKVYACEVTHQGLSSPVTKSFNRGEC
notes: as for B2
On to B4, for which the “He_2aR/2b (IIaR/IIb)” value in experiment [3] amounted to 1.69. In experiment [5], this molecule had a He/Con_2aR of 16.2 control = 100.

B5: heterodimerized antibody GpH7-A5/GpH7-B3 variant T335_01G/GpL16-k0 (antibody, human IgG1, kappa)
heavy 1: not shown
heavy 2: not shown
light: DIVMTQSPLSLPVTPGEPASISCQASESLVHSNRNTYLHWYLQKPGQSPQLLIYKVSNRFSGVPDRFSGSGSGTDFTLKISRVEAEDVGVYYCSQNTHVPPTFGQGTKVEIERTVAAPSVFIFPPSDEQLKSGTASVVCLLNNFYPREAKVQWKVDNALQSGNSQESVTEQDSKDSTYSLSSTLTLSKADYEKHKVYACEVTHQGLSSPVTKSFNRGEC
notes: as for B1
Turning to B5, in experiment [1], the He/Con_1a was 104 % of GpH7-A5/GpH7-B3/GpL16-k0 (=100). Also, the He/Con_2b in experiment [2] was 96.7 % of GpH7-A5/GpH7-B3/GpL16-k0 (=100).

B6: heterodimerized antibody GpH7-A5/GpH7-B3 variant I336_03V/GpL16-k0 (antibody, human IgG1, kappa)
heavy 1: not shown
heavy 2: not shown
light: DIVMTQSPLSLPVTPGEPASISCQASESLVHSNRNTYLHWYLQKPGQSPQLLIYKVSNRFSGVPDRFSGSGSGTDFTLKISRVEAEDVGVYYCSQNTHVPPTFGQGTKVEIERTVAAPSVFIFPPSDEQLKSGTASVVCLLNNFYPREAKVQWKVDNALQSGNSQESVTEQDSKDSTYSLSSTLTLSKADYEKHKVYACEVTHQGLSSPVTKSFNRGEC
notes: as for B1
For the molecule B6, in experiment [1], the He/Con_1a is 105 % of GpH7-A5/GpH7-B3/GpL16-k0 (=100). In addition, the He/Con_2b in experiment [2] is 90.3 % of GpH7-A5/GpH7-B3/GpL16-k0 (=100).

B7: heterodimerized antibody GpH7-A5/GpH7-B3 variant K334_01G/GpL16-k0 (antibody, human IgG1, kappa)
heavy 1: not shown
heavy 2: not shown
light: DIVMTQSPLSLPVTPGEPASISCQASESLVHSNRNTYLHWYLQKPGQSPQLLIYKVSNRFSGVPDRFSGSGSGTDFTLKISRVEAEDVGVYYCSQNTHVPPTFGQGTKVEIERTVAAPSVFIFPPSDEQLKSGTASVVCLLNNFYPREAKVQWKVDNALQSGNSQESVTEQDSKDSTYSLSSTLTLSKADYEKHKVYACEVTHQGLSSPVTKSFNRGEC
notes: as for B1
For B7, the He/Con_1a in experiment [1] is 104 % of GpH7-A5/GpH7-B3/GpL16-k0 (=100). Moreover, the He/Con_2b in experiment [2] is 92.5 % of GpH7-A5/GpH7-B3/GpL16-k0 (=100).
